For 2 sequences, Kd results are on record in article PMC6582412.

Series [1] concerns LrAgo (Limnothrix rosea IAM M-220). Kind of series: double-filter binding. Particulars: 5'-phosphate.
Series [2] has the same test system. As to the kind of experiment: competition.

As to “GTTAGACTTTAAGTCAAT [18 nt 5'-P guide DNA (G-guide)]”, the Kd was determined as 0.0348 nM in series [1] and 0.0333 nM in series [2] (5'-phosphate). Take “GTTAGACTTTAAGTCAAT [18 nt 5'-OH guide DNA (G-guide)]”: the Kd in series [2] (5'-hydroxyl) amounted to 0.0456 nM.
